In US20200232972A1, “METHOD FOR SCREENING ANTI-AGING SUBSTANCES” (Shiseido Company, Ltd., priority 2017, published 2020):

Tested on: young fibroblasts (MMP1 and collagen expression)
Assay: Addition of senescence factor proteins to young fibroblasts: MMP1 and collagen gene expression by RT-PCR
Type: cell-based, Homo sapiens
Details: protein added at 10 μg/ml vs 0 μg/ml, 2 days; for MMP1 expression: FIG. 4(A); for expression of collagen (Collagen 1 gene): FIG. 4(B)
Method: Dermal fibroblasts established from skin from the back of an adult were cultured in Dulbecco's Modified Eagle Medium supplemented with 10% FBS. Cells with a culture period of less than 1 month and Pdl<30 were used as normal fibroblasts (young fibroblasts). These cells were cultured for 3 months or more and cells which began to proliferate more slowly (doubling time less than 0.5/week and Pdl>50) were used as senescent cells. Normal fibroblasts were inoculated on the upper layer of a 6-well transwell system (Falcon; Franklin Lakes, N.J.) filled with Dulbecco's Modified Eagle Medium supplemented with 10% FBS until the density was 1250 cell/cm^2. Subconstructed senescent fibroblasts and normal fibroblasts were separately inoculated in two wells of the lower layer of the transwell system. The upper layer and the lower layer of the transwell system were combined and cultured for 2 days at 37° C. in a humidified atmosphere with 5% CO2, and the cells in the upper layer and the lower layer were recovered using Qiazole (Qiagen).
RNA was extracted from the recovered cell lysate using RNeasy Protect Kit (Qiagen) by following the instructions therefor, then Superscript VILO (Invitrogen) was used to reverse transcribe the RNA into cDNA by following the instructions. Using 28SrRNA as an internal standard, real time PCR was performed with LightCycler (commercially available) using the primer pairs for the following genes. The cycle threshold (Ct value) calculated by Lightcycler software ver. 3.5 was normalized for GAPDH mRNA of each sample.
The proteins of the candidate senescence factors (IGFBP7 and RSPO4) (purchased from Serotec, R&D SYSTEMS) were added to the culture medium for culturing the young fibroblasts at a concentration of 0 μg/ml and 10 μg/ml. After culturing for 2 days, the cells were then separately recovered using Qiazole (Qiagen). In the same way as disclosed in the section relating to quantitative RT-PCR, the expression levels of MMP1 and collagen were examined in the recovered cell lysate.

Row | Molecule | MMP1 expression | expression of collagen (Collagen 1 gene)
1 | IGFBP7: Homo sapiens insulin-like growth factor binding protein 7 protein, purchased (Serotec, R&D SYSTEMS), candidate senescence factor (protein, UniProt Q16270 27-282, looked up) Insulin-like growth …: SSSDTCGPCEPASCPPLPPLGCLLGETRDACGCCPMCARGEGEPCGGGGAGRGYCAPGMECVKSRKRRKGKAGAAAGGPGVSGVCVCKSRYPVCGSDGTTYPSGCQLRAASQRAESRGEKAITQVSKGTCEQGPSIVTPPKDIWNVTGAQVYLSCEVIGIPTPVLIWNKVKRGHYGVQRTELLPGDRDNLAIQTRGGPEKHEVTGWVLVSPLSKEDAGEYECHASNSQGQASASAKITVVDALHEIPVKKGEGAEL | increased | reduced
2 | RSPO4: Homo sapiens R-spondin family, member 4 protein, purchased (Serotec, R&D SYSTEMS), candidate senescence factor (protein, UniProt Q2I0M5 20-234, looked up) R-spondin-4: LNRRKKQVGTGLGGNCTGCIICSEENGCSTCQQRLFLFIRREGIRQYGKCLHDCPPGYFGIRGQEVNRCKKCGATCESCFSQDFCIRCKRQFYLYKGKCLPTCPPGTLAHQNTRECQGECELGPWGGWSPCTHNGKTCGSAWGLESRVREAGRAGHEEAATCQVLSESRKCPIQRPCPGERSPGQKKGRKDRRPRKDRKLDRRLDVRPRQPGLQP | increased | reduced
